Article PMC11772321

Biological target: T1, His-OsNAC2 (Oryza sativa, UniProt Q7XUV6 1-343)
T1 sequence: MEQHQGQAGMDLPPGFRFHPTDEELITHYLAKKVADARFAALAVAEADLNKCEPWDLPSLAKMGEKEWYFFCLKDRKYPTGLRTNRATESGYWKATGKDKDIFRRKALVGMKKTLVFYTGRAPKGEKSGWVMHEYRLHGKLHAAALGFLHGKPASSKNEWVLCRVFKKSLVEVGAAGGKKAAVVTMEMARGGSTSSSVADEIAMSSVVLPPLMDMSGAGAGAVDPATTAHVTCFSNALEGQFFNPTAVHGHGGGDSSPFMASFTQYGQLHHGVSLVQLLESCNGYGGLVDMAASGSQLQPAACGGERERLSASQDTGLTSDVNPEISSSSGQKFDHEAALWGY
Assay: EMSA

B1: probe-OsNAC2-59 (MITE in OsSCE1a promoter) (dsDNA)
DNA 1: TCCTTTGAGTCTATCTCTCTCATCCAATTCTTGTGTTTTTCCTGTGGTTCAATCAAACG
DNA 2: CGTTTGATTGAACCACAGGAAAAACACAAGAATTGGATGAGAGAGATAGACTCAAAGGA
binding result: binds
